From patent publication US20220010021A1 (Sanofi, published 2022)
Substitutions are numbered along the chain they refer to. Names and notes keep the numbering of the source.

T1: human beta-Klotho (KLB) (human, UniProt Q86Z14 53-997)
T1 construct: bought protein, used as analyte in the off-rate screening; also called human KLB; β-Klotho
T1 sequence (looked up): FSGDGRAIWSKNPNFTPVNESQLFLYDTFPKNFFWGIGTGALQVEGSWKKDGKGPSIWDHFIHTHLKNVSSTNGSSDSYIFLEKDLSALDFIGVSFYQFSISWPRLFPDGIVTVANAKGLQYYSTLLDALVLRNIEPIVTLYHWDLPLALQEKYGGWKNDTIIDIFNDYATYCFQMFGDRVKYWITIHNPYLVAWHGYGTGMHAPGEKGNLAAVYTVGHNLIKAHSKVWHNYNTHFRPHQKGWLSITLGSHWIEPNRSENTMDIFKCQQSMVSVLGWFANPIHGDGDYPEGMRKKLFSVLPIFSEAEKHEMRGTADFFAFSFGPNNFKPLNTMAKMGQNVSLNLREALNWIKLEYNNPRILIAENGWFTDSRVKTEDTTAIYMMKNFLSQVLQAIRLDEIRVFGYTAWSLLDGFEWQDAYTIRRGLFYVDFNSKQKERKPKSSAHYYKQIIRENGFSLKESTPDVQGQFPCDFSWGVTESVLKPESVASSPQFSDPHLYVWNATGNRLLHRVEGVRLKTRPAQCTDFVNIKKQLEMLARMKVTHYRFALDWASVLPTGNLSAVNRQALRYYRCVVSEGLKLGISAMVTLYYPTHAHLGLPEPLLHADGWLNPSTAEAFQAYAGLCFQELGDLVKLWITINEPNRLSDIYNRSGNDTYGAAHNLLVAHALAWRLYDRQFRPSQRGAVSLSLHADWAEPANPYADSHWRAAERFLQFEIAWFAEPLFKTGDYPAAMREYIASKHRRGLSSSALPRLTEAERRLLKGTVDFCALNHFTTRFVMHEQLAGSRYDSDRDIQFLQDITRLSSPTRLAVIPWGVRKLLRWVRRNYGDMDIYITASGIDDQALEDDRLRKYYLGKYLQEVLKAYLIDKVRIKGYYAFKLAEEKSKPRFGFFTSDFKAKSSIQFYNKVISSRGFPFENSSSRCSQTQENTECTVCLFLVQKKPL

T2: human beta-Klotho (KLB) (human, UniProt Q86Z14 53-997)
T2 construct: Bought soluble protein; also called human KLB; ß-Klotho
T2 sequence (looked up): T1 sequence (looked up)

B1: 16H7 variant with light chain substitution P54R (antibody, V domains shown)
VH: not shown
VL: SYVLTQPPSVSVAPGQTARITCGGNNIGSESVHWYQQKPGQAPVLVVYDDSDRRSGIPERFSGSNSGNTATLTISRVEAGDEADYYCQVWDGNSDHVVFGGGTKLTVLG
B2: 16H7 variant with light chain substitution D52T (antibody, V domains shown)
VH: not shown
VL: B1 VL with D52T, R54P
B3: 16H7 variant with light chain substitution D52Q (antibody, V domains shown)
VH: not shown
VL: B1 VL with D52Q, R54P
B4: 16H7 light chain variant S31T (antibody, V domains shown)
VH: not shown
VL: B1 VL with S31T, R54P
notes: copies: 2 + 2
B5: 16H7 light chain variant S31D (antibody, human IgG4 S228P, lambda, V domains shown)
VH: not shown
VL: B1 VL with S31D, R54P
B6: 16H7 variant with light chain substitution D52N (antibody, V domains shown)
VH: not shown
VL: B1 VL with D52N, R54P
B7: 16H7 light chain variant S31W (antibody, human IgG4 S228P, lambda, V domains shown)
VH: not shown
VL: B1 VL with S31W, R54P
B8: 16H7 variant with light chain substitution P54D (antibody, V domains shown)
VH: not shown
VL: B1 VL with R54D
B9: 16H7 variant with light chain substitution D52A (antibody, V domains shown)
VH: not shown
VL: B1 VL with D52A, R54P
B10: 16H7 variant with light chain substitution P54N (antibody, V domains shown)
VH: not shown
VL: B1 VL with R54N
B11: 16H7 variant with light chain substitution P54M (antibody, V domains shown)
VH: not shown
VL: B1 VL with R54M
B12: 16H7 variant with light chain substitution P54I (antibody, V domains shown)
VH: not shown
VL: B1 VL with R54I
B13: 16H7 variant with light chain substitution P54L (antibody, V domains shown)
VH: not shown
VL: B1 VL with R54L
B14: 16H7 variant with light chain substitution D52F (antibody, V domains shown)
VH: not shown
VL: B1 VL with D52F, R54P
B15: 16H7 variant with light chain substitution D52E (antibody, V domains shown)
VH: not shown
VL: B1 VL with D52E, R54P
B16: 16H7 variant with light chain substitution D52L (antibody, V domains shown)
VH: not shown
VL: B1 VL with D52L, R54P
B17: 16H7 variant with light chain substitution D52S (antibody, V domains shown)
VH: not shown
VL: B1 VL with D52S, R54P
B18: 16H7 variant with light chain substitution D52V (antibody, V domains shown)
VH: not shown
VL: B1 VL with D52V, R54P
B19: 16H7 variant with light chain substitution P54F (antibody, V domains shown)
VH: not shown
VL: B1 VL with R54F
B20: 16H7 light chain variant S31R (antibody, human IgG4 S228P, lambda, V domains shown)
VH: not shown
VL: B1 VL with S31R, R54P
B21: 16H7 variant with light chain substitution D52K (antibody, V domains shown)
VH: not shown
VL: B1 VL with D52K, R54P
B22: 16H7 light chain variant S31M (antibody, human IgG4 S228P, lambda, V domains shown)
VH: not shown
VL: B1 VL with S31M, R54P
B23: 16H7 variant with light chain substitution D52M (antibody, V domains shown)
VH: not shown
VL: B1 VL with D52M, R54P
B24: 16H7 variant with light chain substitution P54G (antibody, V domains shown)
VH: not shown
VL: B1 VL with R54G
B25: 16H7 light chain variant S31P (antibody, V domains shown)
VH: not shown
VL: B1 VL with S31P, R54P
notes: copies: 2 + 2
B26: 16H7 variant with light chain substitution D52Y (antibody, V domains shown)
VH: not shown
VL: B1 VL with D52Y, R54P
B27: 16H7 variant with light chain substitution P54K (antibody, V domains shown)
VH: not shown
VL: B1 VL with R54K
B28: 16H7 light chain variant S31I (antibody, human IgG4 S228P, lambda, V domains shown)
VH: not shown
VL: B1 VL with S31I, R54P
B29: 16H7 variant with light chain substitution D52R (antibody, V domains shown)
VH: not shown
VL: B1 VL with D52R, R54P
B30: 16H7 variant with light chain substitution P54C (antibody, V domains shown)
VH: not shown
VL: B1 VL with R54C
B31: 16H7 variant with light chain substitution P54H (antibody, V domains shown)
VH: not shown
VL: B1 VL with R54H
B32: 16H7 variant with light chain substitution D52H (antibody, V domains shown)
VH: not shown
VL: B1 VL with D52H, R54P
B33: 16H7 variant with light chain substitution D52I (antibody, V domains shown)
VH: not shown
VL: B1 VL with D52I, R54P
B34: 16H7 light chain variant S31V (antibody, human IgG4 S228P, lambda, V domains shown)
VH: not shown
VL: B1 VL with S31V, R54P
B35: 16H7 light chain variant S31G (antibody, human IgG4 S228P, lambda, V domains shown)
VH: not shown
VL: B1 VL with S31G, R54P
B36: 16H7 variant with light chain substitution D52G (antibody, V domains shown)
VH: not shown
VL: B1 VL with D52G, R54P
B37: 16H7 light chain variant S31E (antibody, V domains shown)
VH: not shown
VL: B1 VL with S31E, R54P
notes: copies: 2 + 2

Legend:
[1] = target: human FGFR1c/KLB receptor complex on iLite FGF21 Assay Ready Cells (human, UniProt P11362 22-822; Q86Z14 1-1044); test: cell-based or functional assay
Sequence of human FGFR1c/KLB receptor complex on iLite FGF21 Assay Ready Cells (P11362 22-822, chain 1 of 2): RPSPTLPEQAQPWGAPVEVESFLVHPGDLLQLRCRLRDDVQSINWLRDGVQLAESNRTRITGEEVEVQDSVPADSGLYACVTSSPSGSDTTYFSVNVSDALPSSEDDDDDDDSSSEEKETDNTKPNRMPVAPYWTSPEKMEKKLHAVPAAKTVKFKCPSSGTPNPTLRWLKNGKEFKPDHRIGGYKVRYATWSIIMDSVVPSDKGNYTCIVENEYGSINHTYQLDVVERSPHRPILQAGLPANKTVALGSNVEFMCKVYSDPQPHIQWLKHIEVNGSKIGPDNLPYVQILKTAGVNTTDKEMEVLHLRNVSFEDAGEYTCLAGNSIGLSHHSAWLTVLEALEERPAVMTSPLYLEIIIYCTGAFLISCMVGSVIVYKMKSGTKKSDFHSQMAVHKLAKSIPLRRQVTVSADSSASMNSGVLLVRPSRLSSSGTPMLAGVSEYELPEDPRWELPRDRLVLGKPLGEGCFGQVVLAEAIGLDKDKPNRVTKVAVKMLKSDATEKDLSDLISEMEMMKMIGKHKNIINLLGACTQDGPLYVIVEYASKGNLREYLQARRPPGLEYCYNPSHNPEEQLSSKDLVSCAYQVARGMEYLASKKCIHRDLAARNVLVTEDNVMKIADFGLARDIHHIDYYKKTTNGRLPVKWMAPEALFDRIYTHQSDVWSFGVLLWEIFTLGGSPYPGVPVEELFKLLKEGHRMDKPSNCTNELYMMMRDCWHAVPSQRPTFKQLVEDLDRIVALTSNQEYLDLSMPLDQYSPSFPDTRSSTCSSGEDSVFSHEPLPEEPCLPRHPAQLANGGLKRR
Sequence of human FGFR1c/KLB receptor complex on iLite FGF21 Assay Ready Cells (Q86Z14 whole entry, chain 2 of 2): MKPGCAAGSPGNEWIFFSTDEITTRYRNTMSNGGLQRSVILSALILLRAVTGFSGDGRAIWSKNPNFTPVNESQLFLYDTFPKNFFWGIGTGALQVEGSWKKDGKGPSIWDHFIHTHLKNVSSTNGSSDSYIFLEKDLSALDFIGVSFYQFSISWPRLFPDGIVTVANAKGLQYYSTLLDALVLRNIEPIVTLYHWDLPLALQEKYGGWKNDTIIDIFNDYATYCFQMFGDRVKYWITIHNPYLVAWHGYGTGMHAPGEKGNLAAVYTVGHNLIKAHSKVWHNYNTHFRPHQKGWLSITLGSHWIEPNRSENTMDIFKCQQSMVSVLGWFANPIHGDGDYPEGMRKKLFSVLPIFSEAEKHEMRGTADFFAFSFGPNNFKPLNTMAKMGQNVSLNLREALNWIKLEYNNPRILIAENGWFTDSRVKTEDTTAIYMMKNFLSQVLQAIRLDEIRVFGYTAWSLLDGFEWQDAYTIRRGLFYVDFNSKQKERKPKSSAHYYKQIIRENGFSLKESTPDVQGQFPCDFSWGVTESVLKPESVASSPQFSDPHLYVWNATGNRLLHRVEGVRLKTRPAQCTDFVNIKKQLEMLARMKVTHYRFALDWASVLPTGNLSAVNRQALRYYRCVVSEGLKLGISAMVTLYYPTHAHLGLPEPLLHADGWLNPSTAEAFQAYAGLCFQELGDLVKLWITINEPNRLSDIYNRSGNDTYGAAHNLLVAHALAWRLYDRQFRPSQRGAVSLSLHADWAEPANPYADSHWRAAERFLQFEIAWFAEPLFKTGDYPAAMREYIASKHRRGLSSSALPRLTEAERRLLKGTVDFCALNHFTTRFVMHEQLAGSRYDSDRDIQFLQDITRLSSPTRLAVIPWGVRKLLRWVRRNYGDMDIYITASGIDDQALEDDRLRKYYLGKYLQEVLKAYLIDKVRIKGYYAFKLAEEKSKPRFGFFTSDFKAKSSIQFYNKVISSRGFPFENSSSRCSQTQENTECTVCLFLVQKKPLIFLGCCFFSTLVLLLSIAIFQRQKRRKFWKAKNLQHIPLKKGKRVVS

human beta-Klotho (KLB) [2] = target: T1, human beta-Klotho (KLB); test: BLI off-rate screening, mAb captured, KLB analyte;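 also: Off-rate taken from the dissociation phase, biosensors held in D-PBS with 0.1% BSA over 1800 s, antibody supernatants diluted to 25 µg/mL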
[3] = target: cell surface receptor composed of FGFR1c and co-receptor beta-Klotho (KLB) (human, UniProt P11362 22-822; Q86Z14 1-1044); test: cell-based or functional assay
Sequence of cell surface receptor composed of FGFR1c and co-receptor beta-Klotho (KLB) (P11362 22-822, chain 1 of 2): as the sequence (P11362 22-822, chain 1 of 2) above
Sequence of cell surface receptor composed of FGFR1c and co-receptor beta-Klotho (KLB) (Q86Z14 whole entry, chain 2 of 2): as the sequence (Q86Z14 whole entry, chain 2 of 2) above

human beta-Klotho (KLB) [4] = target: T2, human beta-Klotho (KLB); test: BLI off-rate screen, supernatant;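 also: expression supernatants tested at 25 µg/mL, dissociation followed for 1800 s in D-PBS with 0.1% BSA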
For Mean E max (%) in this document: reference of the scale not given here.
For Mean E max, Luciferase reporter gene assay in this document: reference of the scale not given here.

Binder | Mean E max (%) [1] | Mean EC50 [1] | koff (human beta-Klotho (KLB) [2]) | Mean E max, Luciferase reporter gene assay [3] | Mean EC50, Luciferase reporter gene assay [3] | koff (human beta-Klotho (KLB) [4])
B1 | 104% | 0.111 nM | 0.00011 s⁻¹ | – | – | –
B2 | 100% | 0.109 nM | 1.8e-05 s⁻¹ | – | – | –
B3 | 101% | 0.107 nM | 2.7e-05 s⁻¹ | – | – | –
B4 | – | – | – | 101% | 0.108 nM | 0.00011 s⁻¹
B5 | – | – | – | 99% | 0.077 nM | 0.00019 s⁻¹
B6 | 115% | 0.124 nM | 6.9e-07 s⁻¹ | – | – | –
B7 | – | – | – | 103% | 0.178 nM | 0.00034 s⁻¹
B8 | 96% | 0.115 nM | 0.00028 s⁻¹ | – | – | –
B9 | 101% | 0.163 nM | 4.8e-05 s⁻¹ | – | – | –
B10 | 105% | 0.15 nM | 0.00014 s⁻¹ | – | – | –
B11 | 98% | 0.087 nM | 3.2e-05 s⁻¹ | – | – | –
B12 | 112% | 0.115 nM | 3.5e-05 s⁻¹ | – | – | –
B13 | 108% | 0.133 nM | 9.6e-05 s⁻¹ | – | – | –
B14 | 102% | 0.105 nM | 7.9e-06 s⁻¹ | – | – | –
B15 | 123% | 0.114 nM | 1e-07 s⁻¹ | – | – | –
B16 | 106% | 0.107 nM | 5.7e-05 s⁻¹ | – | – | –
B17 | 108% | 0.098 nM | 4e-05 s⁻¹ | – | – | –
B18 | 114% | 0.125 nM | 6.9e-05 s⁻¹ | – | – | –
B19 | 105% | 0.143 nM | 0.00012 s⁻¹ | – | – | –

Binder | Mean E max (%) [1] | Mean EC50 [1] | koff (human beta-Klotho (KLB) [2]) | Mean E max, Luciferase reporter gene assay [3] | Mean EC50, Luciferase reporter gene assay [3] | koff (human beta-Klotho (KLB) [4])
B20 | – | – | – | 102% | 0.166 nM | 4.2e-05 s⁻¹
B21 | 101% | 0.117 nM | 9.2e-05 s⁻¹ | – | – | –
B22 | – | – | – | 97% | 0.151 nM | 0.0003 s⁻¹
B23 | 105% | 0.144 nM | 2.4e-05 s⁻¹ | – | – | –
B24 | 114% | 0.141 nM | 5.1e-05 s⁻¹ | – | – | –
B25 | – | – | – | 103% | 0.104 nM | 6.6e-05 s⁻¹
B26 | 102% | 0.11 nM | 9.1e-05 s⁻¹ | – | – | –
B27 | 100% | 0.131 nM | 0.00016 s⁻¹ | – | – | –
B28 | – | – | – | 93% | 0.089 nM | 0.00015 s⁻¹
B29 | 96% | 0.091 nM | 2.9e-05 s⁻¹ | – | – | –
B30 | 100% | 0.116 nM | 0.00012 s⁻¹ | – | – | –
B31 | 100% | 0.111 nM | 0.00014 s⁻¹ | – | – | –
B32 | 97% | 0.109 nM | 3.6e-05 s⁻¹ | – | – | –
B33 | 110% | 0.14 nM | 2.8e-05 s⁻¹ | – | – | –
B34 | – | – | – | 100% | 0.106 nM | 6.6e-05 s⁻¹
B35 | – | – | – | 109% | 0.111 nM | 5.5e-05 s⁻¹
B36 | 109% | 0.125 nM | 3.7e-05 s⁻¹ | – | – | –
B37 | – | – | – | 98% | 0.111 nM | 0.00031 s⁻¹
